How the values were obtained:
[1] = target: N-2-[(7-methoxy-2-oxo-2H-chromen-4-yl)acetyl]-D-arginyl-L-prolyl-L-leucylglycyl-6-(benzyloxy)-L-norleucyl-3-[(2,4-dinitrophenyl)amino]-L-alanyl-L-alanyl-D-arginyl-D-alpha-glutamyl-D-argininamide
[2] = target: N-2-[(7-methoxy-2-oxo-2H-chromen-4-yl)acetyl]-D-arginyl-L-prolyl-L-leucylglycyl-6-phenoxy-L-norleucyl-3-[(2,4-dinitrophenyl)amino]-L-alanyl-L-alanyl-D-arginyl-D-alpha-glutamyl-D-argininamide
[3] = target: N-2-[(7-methoxy-2-oxo-2H-chromen-4-yl)acetyl]-D-arginyl-L-prolyl-L-leucylglycyl-L-leucyl-3-[(2,4-dinitrophenyl)amino]-L-alanyl-L-alanyl-D-arginyl-D-alpha-glutamyl-D-argininamide
[4] = target: N-2-[(7-methoxy-2-oxo-2H-chromen-4-yl)acetyl]-L-arginyl-L-prolyl-L-leucylglycyl-6-(benzyloxy)-L-norleucyl-3-[(2,4-dinitrophenyl)amino]-L-alanyl-L-alanyl-L-arginyl-L-alpha-glutamyl-L-argininamide
[5] = target: N-2-[(7-methoxy-2-oxo-2H-chromen-4-yl)acetyl]-L-arginyl-L-prolyl-L-leucylglycyl-L-leucyl-3-[(2,4-dinitrophenyl)amino]-L-alanyl-L-alanyl-D-arginyl-D-alpha-glutamyl-D-argininamide
[6] = target: N-2-[(7-methoxy-2-oxo-2H-chromen-4-yl)acetyl]-L-arginyl-L-prolyl-L-leucylglycyl-L-leucyl-3-[(2,4-dinitrophenyl)amino]-L-alanyl-L-alanyl-L-arginyl-L-alpha-glutamyl-L-argininamide

B1: MMP-1 (protein)
chain: FVLTEGNPRWEQTHLTYRIENYTPDLPRADVDHAIEKAFQLWSNVTPLTFTKVSEGQADIMISFVRGDHRDNSPFDGPGGNLAHAFQPGPGIGGDAHFDEDERWTNNFREYNLHRVAAHELGHSLGLSHSTDIGALMYPSYTFSGDVQLAQDDIDGIQAIYGRSQNPVQPIGPQTPKACDSKLTFDAITTIRGEVMFFKDRFYMRTNPFYPEVELNFISVFWPQLPNGLEAAYEFADRDEVRFFKGNKYWAVQGQNVLHGYPKDIYSSFGFPRTVKHIDAALSEENTGKTYFFVANKYWRYDEYKRSMDPGYPKMIAHDFPGIGHKVDAVFMKDGFFYFFHGTRQYKFDPKTKRILTLQKANSWFNCRKN
Km [1]: 35.1 µM | kcat/Km [1]: 3600 M⁻¹ s⁻¹ | kcat/Km [2]: 0 M⁻¹ s⁻¹ | Km [3]: 49 µM | kcat/Km [3]: 57000 M⁻¹ s⁻¹ | kcat/Km [4]: 0 M⁻¹ s⁻¹ | Km [5]: 17.3 µM | kcat/Km [5]: 176000 M⁻¹ s⁻¹ | Km [6]: 16 µM | kcat/Km [6]: 255000 M⁻¹ s⁻¹

B2: MMP-2 (protein)
chain: YNFFPRKPKWDKNQITYRIIGYTPDLDPETVDDAFARAFQVWSDVTPLRFSRIHDGEADIMINFGRWEHGDGYPFDGKDGLLAHAFAPGTGVGGDSHFDDDELWTLGEGQVVRVKYGNADGEYCKFPFLFNGKEYNSCTDTGRSDGFLWCSTTYNFEKDGKYGFCPHEALFTMGGNAEGQPCKFPFRFQGTSYDSCTTEGRTDGYRWCGTTEDYDRDKKYGFCPETAMSTVGGNSEGAPCVFPFTFLGNKYESCTSAGRSDGKMWCATTANYDDDRKWGFCPDQGYSLFLVAAHEFGHAMGLEHSQDPGALMAPIYTYTKNFRLSQDDIKGIQELYGASPDIDLGTGPTPTLGPVTPEICKQDIVFDGIAQIRGEIFFFKDRFIWRTVTPRDKPMGPLLVATFWPELPEKIDAVYEAPQEEKAVFFAGNEYWIYSASTLERGYPKPLTSLGLPPDVQRVDAAFNWSKNKKTYIFAGDKFWRYNEVKKKMDPGFPKLIADAWNAIPDNLDAVVDLQGGGHSYFFKGAYYLKLENQSLKSVKFGSIKSDWLGC
Km [1]: 3.7 µM | kcat/Km [1]: 600000 M⁻¹ s⁻¹ | Km [2]: 3.6 µM | kcat/Km [2]: 1.96e+06 M⁻¹ s⁻¹ | Km [3]: 9.9 µM | kcat/Km [3]: 178000 M⁻¹ s⁻¹ | Km [4]: 8.3 µM | kcat/Km [4]: 1.34e+06 M⁻¹ s⁻¹ | Km [5]: 16.3 µM | kcat/Km [5]: 681000 M⁻¹ s⁻¹ | Km [6]: 16.5 µM | kcat/Km [6]: 565000 M⁻¹ s⁻¹

B3: MMP-7 (protein)
chain: YSLFPNSPKWTSKVVTYRIVSYTRDLPHITVDRLVSKALNMWGKEIPLHFRKVVWGTADIMIGFARGAHGDSYPFDGPGNTLAHAFAPGTGLGGDAHFDEDERWTDGSSLGINFLYAATHELGHSLGMGHSSDPNAVMYPTYGNGDPQNFKLSQDDIKGIQKLYGKRSNSRKK
Km [1]: 94.7 µM | kcat/Km [1]: 2980 M⁻¹ s⁻¹ | kcat/Km [2]: 0 M⁻¹ s⁻¹ | Km [3]: 81.2 µM | kcat/Km [3]: 22000 M⁻¹ s⁻¹ | kcat/Km [4]: 0 M⁻¹ s⁻¹ | Km [5]: 25 µM | kcat/Km [5]: 120000 M⁻¹ s⁻¹ | Km [6]: 26.4 µM | kcat/Km [6]: 142000 M⁻¹ s⁻¹

— patent US20040018561
